Experimental data published in IntAct's records for PubMed 22796944.

B1: Transcription elongation factor SPT5 (Saccharomyces cerevisiae), P27692 (parent)
chain: MSDNSDTNVSMQDHDQQFADPVVVPQSTDTKDENTSDKDTVDSGNVTTTESTERAESTSNIPPLDGEEKEAKSEPQQPEDNAETAATEQVSSSNGPATDDAQATLNTDSSEANEIVKKEEGSDERKRPREEDTKNSDGDTKDEGDNKDEDDDEDDDDDDDDEDDDDEAPTKRRRQERNRFLDIEAEVSDDEDEDEDEEDSELVREGFITHGDDEDDEASAPGARRDDRLHRQLDQDLNKTSEEDAQRLAKELRERYGRSSSKQYRAAAQDGYVPQRFLLPSVDTATIWGVRCRPGKEKELIRKLLKKKFNLDRAMGKKKLKILSIFQRDNYTGRIYIEAPKQSVIEKFCNGVPDIYISQKLLIPVQELPLLLKPNKSDDVALEEGSYVRIKRGIYKGDLAMVDQISENNLEVMLKIVPRLDYGKFDEIDPTTQQRKSRRPTFAHRAPPQLFNPTMALRLDQANLYKRDDRHFTYKNEDYIDGYLYKSFRIQHVETKNIQPTVEELARFGSKEGAVDLTSVSQSIKKAQAAKVTFQPGDRIEVLNGEQRGSKGIVTRTTKDIATIKLNGFTTPLEFPISTLRKIFEPGDHVTVINGEHQGDAGLVLMVEQGQVTFMSTQTSREVTITANNLSKSIDTTATSSEYALHDIVELSAKNVACIIQAGHDIFKVIDETGKVSTITKGSILSKINTARARVSSVDANGNEIKIGDTIVEKVGSRREGQVLYIQTQQIFVVSKKIVENAGVFVVNPSNVEAVASKDNMLSNKMDLSKMNPEIISKMGPPSSKTFQQPIQSRGGREVALGKTVRIRSAGYKGQLGIVKDVNGDKATVELHSKNKHITIDKHKLTYYNREGGEGITYDELVNRRGRVPQARMGPSYVSAPRNMATGGIAAGAAATSSGLSGGMTPGWSSFDGGKTPAVNAHGGSGGGGVSSWGGASTWGGQGNGGASAWGGAGGGASAWGGQGTGATSTWGGASAWGNKSSWGGASTWASGGESNGAMSTWGGTGDRSAYGGASTWGGNNNNKSTRDGGASAWGNQDDGNRSAWNNQGNKSNYGGNSTWGGH
B2: Cell division control protein 73 (Saccharomyces cerevisiae), Q06697 (parent)
chain: MANSLDRLREHLKNGDKLVLKNNEGQSTDDITKATMVETLSSDGSTQDSFPLNEETEIEIDGSLVQLRIIVHCWMNKDSSAADYLADCQNKQLTNVSFLQRTDLINWLSGNTESSQYLKAPGQKGETSDKVDIENKTLAGELSTVKSTTSASLENDSEVSDPVVVETMKHERILVDHNSALRGAKPINFGYLIKDAELKLVQSIKGSLRGSKLPPGHKGAHGRISKTNGSSGGPRKDPIILIPSAASSILTVANIKQFLLESKYVNPRNLPSVPNGLVNIEKNFERISRPIRFIIVDNTRMFTKPEYWDRVVAIFTTGHTWQFNNYQWNSPQELFQRCKGYYFHFAGDSVPQHVQQWNVEKVELDKNKRFKDVEVVRYFWHSLEKELISRGYR
B3: Cell division control protein 73 (Saccharomyces cerevisiae), Q06697 (parent)
chain: B2 chain
partner: B1 chain

Variants of: B1
Details: with rtf1_yeast RTF1, P53064
Sequence of rtf1_yeast RTF1, P53064 (P53064 whole entry): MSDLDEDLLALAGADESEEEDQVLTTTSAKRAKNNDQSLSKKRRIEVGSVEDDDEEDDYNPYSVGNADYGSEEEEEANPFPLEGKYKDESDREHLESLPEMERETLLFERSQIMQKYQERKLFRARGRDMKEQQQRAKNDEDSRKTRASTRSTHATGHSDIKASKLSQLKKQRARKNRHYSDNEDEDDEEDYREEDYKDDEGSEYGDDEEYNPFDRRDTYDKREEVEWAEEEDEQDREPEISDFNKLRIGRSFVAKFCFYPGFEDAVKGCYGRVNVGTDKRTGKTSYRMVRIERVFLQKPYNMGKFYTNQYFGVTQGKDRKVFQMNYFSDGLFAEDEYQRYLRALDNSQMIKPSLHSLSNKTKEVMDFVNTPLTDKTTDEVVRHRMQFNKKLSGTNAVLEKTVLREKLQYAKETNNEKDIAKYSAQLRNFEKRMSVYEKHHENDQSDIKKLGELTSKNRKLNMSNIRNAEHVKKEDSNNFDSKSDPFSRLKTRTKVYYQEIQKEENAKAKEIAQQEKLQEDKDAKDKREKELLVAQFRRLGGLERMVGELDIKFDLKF

effect of a mutation on the interaction | Variant
decreasing interaction | M1D

Variants of: B2
Details: with rpb1_yeast RPO21, P04050
Sequence of rpb1_yeast RPO21, P04050 (P04050 whole entry): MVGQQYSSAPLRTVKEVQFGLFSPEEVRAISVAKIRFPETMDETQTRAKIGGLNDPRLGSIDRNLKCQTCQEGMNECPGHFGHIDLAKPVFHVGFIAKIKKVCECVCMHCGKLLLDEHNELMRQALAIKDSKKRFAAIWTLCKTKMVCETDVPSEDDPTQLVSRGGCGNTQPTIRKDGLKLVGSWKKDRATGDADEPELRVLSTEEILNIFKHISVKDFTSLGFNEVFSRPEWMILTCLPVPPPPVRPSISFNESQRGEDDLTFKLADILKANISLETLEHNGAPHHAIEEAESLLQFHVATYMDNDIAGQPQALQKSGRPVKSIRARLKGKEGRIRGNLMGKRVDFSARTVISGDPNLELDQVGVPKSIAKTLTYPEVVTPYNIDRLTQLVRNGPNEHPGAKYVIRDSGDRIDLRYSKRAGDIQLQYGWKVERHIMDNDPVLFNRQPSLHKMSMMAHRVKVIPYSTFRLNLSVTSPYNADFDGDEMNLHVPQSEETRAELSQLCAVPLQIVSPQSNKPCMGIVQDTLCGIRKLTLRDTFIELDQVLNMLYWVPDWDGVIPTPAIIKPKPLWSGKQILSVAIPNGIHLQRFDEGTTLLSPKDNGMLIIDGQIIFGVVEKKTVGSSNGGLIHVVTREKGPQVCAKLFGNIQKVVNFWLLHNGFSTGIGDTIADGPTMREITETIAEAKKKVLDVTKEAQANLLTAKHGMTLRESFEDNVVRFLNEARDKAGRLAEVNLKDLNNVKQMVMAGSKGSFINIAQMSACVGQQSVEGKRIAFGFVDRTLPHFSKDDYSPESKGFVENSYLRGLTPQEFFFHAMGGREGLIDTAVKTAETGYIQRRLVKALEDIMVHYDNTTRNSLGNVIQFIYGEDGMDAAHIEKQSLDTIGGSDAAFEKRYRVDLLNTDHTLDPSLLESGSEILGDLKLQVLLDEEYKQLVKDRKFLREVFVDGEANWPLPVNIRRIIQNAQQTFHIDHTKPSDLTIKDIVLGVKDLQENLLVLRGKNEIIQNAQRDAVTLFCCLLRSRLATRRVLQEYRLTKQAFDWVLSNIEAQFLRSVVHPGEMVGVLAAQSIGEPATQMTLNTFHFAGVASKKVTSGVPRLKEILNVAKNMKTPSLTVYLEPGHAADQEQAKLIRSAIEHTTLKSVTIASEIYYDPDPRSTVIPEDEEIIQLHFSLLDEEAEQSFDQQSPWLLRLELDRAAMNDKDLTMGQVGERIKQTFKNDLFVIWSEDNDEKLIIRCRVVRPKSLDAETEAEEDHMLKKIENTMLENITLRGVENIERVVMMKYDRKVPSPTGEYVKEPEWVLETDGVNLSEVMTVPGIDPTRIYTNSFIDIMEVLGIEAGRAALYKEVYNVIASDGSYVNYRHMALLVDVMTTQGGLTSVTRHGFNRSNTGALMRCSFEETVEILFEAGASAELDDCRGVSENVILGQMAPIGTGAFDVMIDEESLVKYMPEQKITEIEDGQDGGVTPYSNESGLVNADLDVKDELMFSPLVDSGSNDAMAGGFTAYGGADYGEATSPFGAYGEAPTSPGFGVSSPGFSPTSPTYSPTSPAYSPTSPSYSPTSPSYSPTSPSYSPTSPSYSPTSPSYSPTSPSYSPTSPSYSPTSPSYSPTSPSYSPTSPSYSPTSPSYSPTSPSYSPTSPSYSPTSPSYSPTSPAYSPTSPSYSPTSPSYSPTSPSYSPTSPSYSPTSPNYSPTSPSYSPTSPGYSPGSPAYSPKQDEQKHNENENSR

effect of a mutation on the interaction | Variant
disrupting interaction | W380A
disrupting interaction | W357A

Variants of: B3
Details: with spt5_yeast SPT5, P27692

effect of a mutation on the interaction | Variant
disrupting interaction | W380A
disrupting interaction | W357A
